Assay results from PMC12685370, “Loop-mediated regulation and base flipping drive RNA cleavage by human mitochondrial PNPase” (Nucleic Acids Research, 2025).

Key:
[1] = target: T1, hPNPase (human polynucleotide phosphorylase), hPNPase-TS (Homo sapiens, UniProt Q8TCS8); assay: cryo-EM structure; format: binding; conditions: 2 mM NaH2PO4, 2 mM MgCl2, pH 8.0; active site of PH2 domain (S482-484, H450, R446), no RNA; co-substrate of phosphorolysis; also in 9NO0 with PT5 RNA
T1 construct: gene PNPT1; residues 46-783, mitochondrial targeting signal removed, C-terminal Twin-Strep-tag kept, expressed in MEXi-293E cells, homotrimer
T1 sequence (Q8TCS8 46-783): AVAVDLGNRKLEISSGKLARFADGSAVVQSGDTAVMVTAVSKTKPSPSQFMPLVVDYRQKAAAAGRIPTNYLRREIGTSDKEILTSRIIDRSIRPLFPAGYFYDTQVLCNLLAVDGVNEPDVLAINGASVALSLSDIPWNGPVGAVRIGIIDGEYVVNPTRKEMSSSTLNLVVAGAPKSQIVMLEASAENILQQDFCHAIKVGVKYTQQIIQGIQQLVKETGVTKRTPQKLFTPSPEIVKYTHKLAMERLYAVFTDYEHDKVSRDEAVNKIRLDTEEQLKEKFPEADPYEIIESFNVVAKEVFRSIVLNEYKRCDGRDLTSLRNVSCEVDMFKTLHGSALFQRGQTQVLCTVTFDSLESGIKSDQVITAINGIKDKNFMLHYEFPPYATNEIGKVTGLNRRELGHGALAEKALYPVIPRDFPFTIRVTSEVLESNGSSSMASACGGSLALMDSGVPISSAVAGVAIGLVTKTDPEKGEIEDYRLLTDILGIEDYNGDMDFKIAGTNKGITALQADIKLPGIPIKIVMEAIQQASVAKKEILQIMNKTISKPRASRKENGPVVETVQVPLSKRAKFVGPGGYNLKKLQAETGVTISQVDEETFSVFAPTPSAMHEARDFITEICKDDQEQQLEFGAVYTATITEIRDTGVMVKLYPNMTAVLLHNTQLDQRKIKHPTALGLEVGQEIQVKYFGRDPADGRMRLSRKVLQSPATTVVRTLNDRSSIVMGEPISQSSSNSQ

[2] = target: the molecule itself; assay: cryo-EM structure; single-particle cryo-EM of 1.5 uM hPNPase-TS in RNA degradation buffer (10 mM HEPES pH 8.0, 50 mM NaCl, 2 mM MgCl2, 2 mM DTT, 2 mM NaH2PO4); apo (with Pi), RNA loading state (PT5 RNA) and pre-catalytic state (10 mM Na2SO4, 0.1 mM NaH2PO4, RNA); refined in C1
[3] = target: T2, hPNPase (human mitochondrial polynucleotide phosphorylase) (Homo sapiens, UniProt Q8TCS8 46-783); assay: cryo-EM structure; sulfate in place of phosphate, Mg2+; pre-catalytic state, 2.2 A, 6 nt modelled; Protein SEC buffer: 20 mM HEPES-NaOH pH 8.0, 150 mM NaCl, 1 mM MgCl2, 1 mM DTT, 1% glycerol; competition as in RNA degradation assay (conditions not in material); sulfate 2 mM in the assay replacing phosphate; conditions: protein: recombinant; tags: C-terminal Twin-Strep-tag; chain copies: 3; label: 5'-FAM; single strand
T2 sequence: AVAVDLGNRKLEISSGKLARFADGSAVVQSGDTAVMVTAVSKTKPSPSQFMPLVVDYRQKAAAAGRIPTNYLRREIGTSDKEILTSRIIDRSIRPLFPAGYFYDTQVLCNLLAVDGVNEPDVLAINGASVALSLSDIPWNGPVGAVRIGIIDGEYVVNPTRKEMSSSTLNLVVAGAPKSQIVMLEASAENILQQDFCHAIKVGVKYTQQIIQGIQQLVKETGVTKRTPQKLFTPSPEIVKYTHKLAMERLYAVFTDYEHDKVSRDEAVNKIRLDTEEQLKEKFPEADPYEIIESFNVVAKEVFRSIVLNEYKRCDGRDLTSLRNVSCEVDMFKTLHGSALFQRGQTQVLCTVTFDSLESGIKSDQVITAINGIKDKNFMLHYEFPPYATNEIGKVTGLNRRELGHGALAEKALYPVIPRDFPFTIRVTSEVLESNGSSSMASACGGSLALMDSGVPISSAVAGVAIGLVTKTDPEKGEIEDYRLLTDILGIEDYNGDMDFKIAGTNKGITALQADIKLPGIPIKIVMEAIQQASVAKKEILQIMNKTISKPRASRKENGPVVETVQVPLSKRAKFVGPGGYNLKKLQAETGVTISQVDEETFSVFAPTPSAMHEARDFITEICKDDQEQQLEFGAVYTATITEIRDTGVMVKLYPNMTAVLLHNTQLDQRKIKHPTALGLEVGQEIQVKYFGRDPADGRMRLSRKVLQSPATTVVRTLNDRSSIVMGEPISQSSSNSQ

Molecule: O=P(O)(O)O [Pi, phosphate]
- cryo-EM structure [1]: The phosphate ion is present in each protomer and coordinated by S482-484, H450, and R446

B1: human polynucleotide phosphorylase (hPNPase), amino acids 46-783, with C-terminal Twin-Strep-tag (enzyme, UniProt Q8TCS8 46-783, looked up)
chain: AVAVDLGNRKLEISSGKLARFADGSAVVQSGDTAVMVTAVSKTKPSPSQFMPLVVDYRQKAAAAGRIPTNYLRREIGTSDKEILTSRIIDRSIRPLFPAGYFYDTQVLCNLLAVDGVNEPDVLAINGASVALSLSDIPWNGPVGAVRIGIIDGEYVVNPTRKEMSSSTLNLVVAGAPKSQIVMLEASAENILQQDFCHAIKVGVKYTQQIIQGIQQLVKETGVTKRTPQKLFTPSPEIVKYTHKLAMERLYAVFTDYEHDKVSRDEAVNKIRLDTEEQLKEKFPEADPYEIIESFNVVAKEVFRSIVLNEYKRCDGRDLTSLRNVSCEVDMFKTLHGSALFQRGQTQVLCTVTFDSLESGIKSDQVITAINGIKDKNFMLHYEFPPYATNEIGKVTGLNRRELGHGALAEKALYPVIPRDFPFTIRVTSEVLESNGSSSMASACGGSLALMDSGVPISSAVAGVAIGLVTKTDPEKGEIEDYRLLTDILGIEDYNGDMDFKIAGTNKGITALQADIKLPGIPIKIVMEAIQQASVAKKEILQIMNKTISKPRASRKENGPVVETVQVPLSKRAKFVGPGGYNLKKLQAETGVTISQVDEETFSVFAPTPSAMHEARDFITEICKDDQEQQLEFGAVYTATITEIRDTGVMVKLYPNMTAVLLHNTQLDQRKIKHPTALGLEVGQEIQVKYFGRDPADGRMRLSRKVLQSPATTVVRTLNDRSSIVMGEPISQSSSNSQ
notes: human polynucleotide phosphorylase (hPNPase), amino acids 46-783, without the N-terminal mitochondrial targeting signal; gene codon optimized for human cell lines; S1 domain not modelled in the structures; Cloned into the vector pDSG103 (IBA); Homotrimer in all cryo-EM reconstructions; also called hPNPase-TS; human mitochondrial PNPase; source: MEXi-293E cells, transfected, purified …
- stoichiometry N [2]: 3

B2: FAM_PNP_RNA_long (ssRNA)
RNA: CACAACACACACCACACACACAUAAAACAAAACAGCUACGCCAUCCUCCCCCCAAUCUA
- binding result [3]: binds
